The record followed here is the DeepSol protein solubility set.

The series is described as follows: soluble on expression in E. coli; label from the status in PepcDB or PDB records.
For the sequence “MTIFNKIDYNYYKLINYPIMMVHDEWLGDLTGVNQVSFRRLRETSSTRNQLNKILRQEIHDKISGVELSDINKEGFLYQSIGKIRLLALSSALFDIQCPDYIFSRLYRETLIREIGYQNVKQLSFYWQGGQCKPEYGEERFCAELIKYGAGNLEWLFADNPLWTIVKYLLPKSGEIKPTHINDLFLNRLNKILLPYETL”, the “soluble on expression in E. coli” value is listed as “not soluble”. Take “SKFLDVECLSELQRKLNDLELTDYRVRCQLEAYSCKPAGFDKKLSKSLEQKLVEQLEASPRVLEGSPVGSLEDQSARKTLINLICTLNAAHQDYDFSSLQLSRLKRVQDVRSLQQHVDSLFELFYRQLGLEFRQFLWENIGQIIRPEECEVYSYLPDYESDPYSASGALWSFCYFFYHKNMKKILFFSCTLSTRLAEDSESTESVDEEDFGKESSGLETPFAMFETVI”: the “soluble on expression in E. coli” value is recorded as “soluble”. As to “MSKNIKTPTNQKVLTNVAVVRMKKTGKRFEIACYKNKVVNWRNKSEKDIDEVLQTHTVFSNVSKGQLSKKEELIAAFGIEDQLEICKIILDKGDLQVSEKERQAASDQSLKEVSQLIASMVVNPETKRPVPPSVIDKALQEMHFSLKPNRSSKQQALDAIPKLRETLKIERAKMKIRVAIPTKEAKSVHTKLKTLFSDVEVDDWQDGSLEMVGLIEPGSFRALDDLVRNETKGHGRLEILSLKDVVEGELQIS”, the “soluble on expression in E. coli” value is listed as “soluble”. In the case of “PKKDWLSYVVSSKARNKIKQQLRLQMESSIGVVKELLNRRLKNRKLPFEEAVFTRVVRRKGFKHLTDFYMEIAADRLDVQEVLELYSHELEEE”, the “soluble on expression in E. coli” value is “not soluble”. Consider “MSLSDDTIDRFFGYLNWLFNPFHGLKTTEVYDLIGTSSLTENALYLNLGYWRKADTIDEASEALALLVAKRGGMGPGDIVLDCGYGFGDQDILWARQLKPEKIIGLNITSSQVERARKRVADAGLEQSIDLREGSATAMPIENESIDLVVSVESAFHYRTREAFFREAFRVLRPGGRLVTADIVPTENSGNPFRRMEQWFSWNLVAGKFNIPQENYYLIPSYQNKLTKAGFVQIDIKSIRDDVYEPLHAYLAKNRTFFAKMHPLARIMAQLTLNRSAESVYAGLDYILSYAEKEGHHHHHH”, for which the “soluble on expression in E. coli” value is recorded as “soluble”.

As for “MGSDKIHHHHHHMRVSVRNLTKIFRVGSIFSLKKLVAIDNVSFEIGSGEIFSLAGESGCGKTTTAKILLGLEEPTNGEVLYDGIKLKDFVENEMHFLKKVQTVQQNPFSTFNPFRKVEDYLFKTVLRFKMANTKDEALRLIEEKLSVVGLNFDEIKGRYPSEFSGGQLQRISIARALLTNPSFLVADEPVSMIDASLRISIVNLFRDLKERFGISILYITHDLSTAYYVADKLAIMFRGSIVEMGRAQDILDTPFHPYTKLLKSSIPVPDPEYEWDENINLSSTEREEFFAKGCKFASRCPEVMSICRESVPPDFDVNGRVVKCWLYK”, the “soluble on expression in E. coli” value is “not soluble”. In the case of “MSLRILITGNMGYIGPVVARHLRQQYPDAWLVGLDRGWFAHCLSDPRQLPEVVLDQQWFGDVRDLTAQQLSGFDGVVHLAAISNDAMGKRFEQVTDAINCRASVAVAQAAAQAGVKHFVFASSCSVYGAAADGTPRSESSAVAPLTAYAHSKIDTERALAQLETDMVITCLRFATACGASPRLRLDLVLNDFVASAVANGTVEVLSDGSPWRPLIHVRDMARAIDWALGRTPLAGGRFLAVNAGAEQWNVQIRDLAQAVGAAMPSATVSISTTAPADNRSYRVDFSLFQRLAPQHQPQQTLQSTITELRDDLLRAGFADGDFRQSSDFIRLRILQQLVDSGALAADLRAEGHHHHHH”, the “soluble on expression in E. coli” value was “soluble”.

For the sequence “MSLSDYKVGEELSDKEGVEYFKELSKRPVQEWPNKNLSINDVPKGKQGDLIRYGIELLSKTESTLGPYSKLKKTSNEVNCISCHMDNDGNGLPGTKKYVIPFLNILNNYPRLDIETMKIISVEDRIRGMGGTDSHRFPNDSKEMKAILAYFKWLKEAYGIKDGVKLEGDFFAKMNFPNRPADPVRGKKLFEENCVACHGERGLGVKNDNYEQGSGHLYPSLLIYPDGGHMAMIPFLARFLKSAMPFGASADNPILSDEDALDIAAYVNTGFVRMPITTTENRAGLDTAYSKSPSLKPEYFASPQQNLDPKEYIKVKYGPWKNPNHFPGEGHHHHHH”, the “soluble on expression in E. coli” value is on record as “soluble”. On to “MTENLLAERHALRWVFLYEFPQICNCNEARRNMCAVLGKNSVTYNTMKFWFEKFTKKNYDLDDKPR”, for which the “soluble on expression in E. coli” value was “soluble”.

For “AIAEALWTNKIEDPLSLMSFTVPPLRLLSAAMWQVTERRQVKHYGMLEEFVSLVTETIPELLNQHQRAQLILGLRARHLLELCRGKHQGSLKEIQPHLKRLCRPRVNKEFADEDMEESEACFLDLVRTLISNPKEKEHYFQNIFPEEYGPKFDKNLHALMEDFLLKLDRMVSVPDLSETVSWLRTCPSLLDDCIDSVSVPKDMKSLLEHHTAKGNLQDSEGNNCTFSSQSLPPLVQVVISSDHTESGEPSDLNGQDNDDEQASKTSSDGWTIKKIKLKTETEEEDNDQNWPITEAKSTGTRDGYDDGCLGEEPNQTQS”, the “soluble on expression in E. coli” value was “soluble”. As for “MDEEGASVVITIKNEAKNIQKLLDSLFNNDYEHFEVVVVDDMSNDGTEGIVKKYDKVKYIRTRCSRGEGRNIGAMNSSFENILFTDGDAIVSNGWIGGMVSVLNNGFEIAIGKTVYTGKKRYIQDRVKIYFNGIEITAPSVNLAYKKRAFFSLGGFDKRFVTAEDIDLNLRAAMSGFKFGFCNECVVYAKVRDSFISFLKQAFWNGYGRAQLEEKHPGMLKKTDIRLGHNFYDFMHMSAGAAGYLLYKLR”, the entry is “soluble”. “NKNFSWNTDWTYSLNREKIKALNSGVTRDEGNLWFVGSPTQVFYDYKKIGIWQLGEEVQAKAFGGFKPGDIKVADMSPKGSEGEGVFSTDDRVIFSRVPKYTFGITNNIIYKNFDLMFFIYGRIGQYVKDAYTQLYKPSALENSAPVNYWTPENPSNEYPRPNSGYSTNSYLLQSSLAFRKASFVKIRDITLGYTLPKEWTSKMMVQKLRIYCSLNNFITFTDFPNYDPESNGSMDFPLAKQVLFGINLSL”: the “soluble on expression in E. coli” value is “not soluble”. In the case of “MGSDKIHHHHHHMNEEEDAFSYLSKLGLTPYEIKVYKTLLIYGPNSATETAKLSKVPQPRVYDIFESLESKGAVEVSPGKRKIYRAVPIDNFIDRKLIEIRDYKKRIESYIEQQKKFKESNPYLWMIKNNFQIREKMKDVINEAENELIASLNYENIRYLKKYFIDAAKRGITVVIVAFPDAELDFLRTFPEDIVIRIRRGSASQVMIADRKHGLINVESTEDSEGYALYFDENELIHILNYYFYHTIWGPSDMFHDFPVRQNIKFSTAWLSCEAIDSFFKRSYSVSGIVTGYSATGQVKIEGTITGIDLIPGFKHTFFIKDNERVYSVGGKTARMEDIKLETLTMNVWIPNKQAISQKQ”, the “soluble on expression in E. coli” value is “not soluble”. For “MEKPGHETDIAGSRRTHLKKSFKSTLRHLLTACSKQVVVNLHQTIEEEFDEQCHETQVGPILDTVEELVEEQSLDPLFSDKTDVMAIAYDLTTSKKNEIQKLTVLLQRAEEQNRQKEARISMLKKQTQDLSGTADRIEKLNAGVSGYFEGKDKLPPI”, the “soluble on expression in E. coli” value was “soluble”. The same measure for “SNAMSARKLFYLGPQGTFTHQAAVNAAQELARFEPQGFDLMPMDDVPQILDAAQHGDGWGIVAWENNVEGYVVPNLDALIDAKDLVGFARVGVNVEFDAYVAQGADPAEARIATAHPHGLAQCKRFIAEHRLSTQPATSNAAACRDLIPGEIAFGPAICGELYDITRIGTAIQDYQGAATDFLVLSPRAEVARLLAKPRAEANVEYESVLTLIPLVTGPGVLANLLDVFRDAGLNMTSFISRPIKGRTGTYSFIVTLDAAPWEERFRDALVEIAEHGDWAKTLAVYPRREHPNPPVTSWMLPQGGVRLDDSHLPDDWQNDETVRRELMW”: “soluble”; for “MSFFHASQRDALNQSLAEVQGQINVSFQFFPPRTSEMEQTLWNSIDRLSSLKPKFVSVTYGANSGERDRTHSIIKGIKDRTGLEAAPHLTCIDATPDELRTIARDYWNNGIRHIVALRGDLPPGSGKPEMYASDLVTLLKEVADFDISVAAYPEVHPEAKSAQADLLNLKRKVDAGANRAITQFFFDVESYLRFRDRCVSAGIDVEIIPGILPVSNFKQAKKFADMTNVRIPAWMAQMFDGLDDDAETRKLVGANIAMDMVKILSREGVKDFHFYTLNRAEMSYAICHTLGVRPGLLEHHHHHH”: “soluble”.
